Drawing on patent publication US20160362472A1 (published 2016), this text covers binding result and CD107a degranulation, 2-hr in vitro assay for 13 molecules.

The chains are these.
B1: CAR 22-57 (scFv)
scFv: EVQLQQSGPGLVKPSQTLSLTCAISGDSVSNNNAAWNWIRQSPSRGLEWLGRTYHRSTWYNDYVGSVKSRITINPDTSKNQFSLQLNSVTPEDTAVYYCARETDYGDYGAFDIWGQGTTVTVSSGGGGSGGGGSGGGGSQSALTQPASVSGSPGQSITISCTGSRNDIGAYESVSWYQQHPGNAPKLIIHGVNNRPSGVFDRFSVSQSGNTASLTISGLQAEDEADYYCSSHTTTSTLYVFGTGTKVTVLG
notes: scFv domain of a CAR expressed on JNL cells; also called CD22-57
B2: CAR22-58 (scFv)
scFv: EVQLQQSGPGLVNPSQTLSITCAISGDSVSSNSAAWNWIRQSPSRGLEWLGRTFYRSKWYNDYAVSVKGRITISPDTSKNQFSLQLNSVTPEDTAVYYCAGGDYYYGLDVWGQGTTVTVSSGGGGSGGGGSGGGGSQSALTQPASVSGSPGQSITISCTGSSSDVGGYNSVSWYQQHPGKAPKLMIYEVINRPSGVSHRFSGSKSGNTASLTISGLQAEDEADYYCSSYTSSSTYVFGTGTKVTVLG
notes: scFv domain of a CAR expressed on JNL cells; also called CD22-58
B3: CAR22-12 (scFv)
scFv: EVQLQQSGPGLVKPSQTLSLTCAISGDSVLSNSDTWNWIRQSPSRGLEWLGRTYHRSTWYDDYASSVRGRVSINVDTSKNQYSLQLNAVTPEDTGVYYCARDRLQDGNSWSDAFDVWGQGTMVTVSSGGGGSGGGGSGGGGSQSALTQPASASGSPGQSVTISCTGTSSDVGGYNYVSWYQQHPGKAPKLMIYDVSNRPSGVSNRFSGSKSGNTASLTISGLQAEDEADYYCSSYTSSSTLYVFGTGTQLTVL
notes: scFv domain of a CAR on T cells or JNL cells; also called CD22 CAR clone 12; hCD22-12
B4: CAR22-62 (scFv)
scFv: EVQLQQSGPGLVKPSQTLSLTCAISGDSVLSNSDTWNWIRQSPSRGLEWLGRTYHRSTWYDDYASSVRGRVSINVDTSKNQYSLQLNAVTPEDTGVYYCARDRLQDGNSWSDAFDVWGQGTMVTVSSGGGGSGGGGSGGGGSQSALTQPASVSGSPGQSITISCTGTSSDVGGYNYVSWYQQHPGKAPKLMIYDVSNRPSGVSNRFSGSKSGNTASLTISGLQAEDEADYYCSSYTSSSTLYVFGTGTKVTVLG
notes: scFv domain of a CAR expressed on JNL cells; also called CD22-62
B5: CAR22-59 (scFv)
scFv: EVQLQQSGPGLVKPSQTLSLTCAISGDSVLSNSDTWNWIRQSPSRGLEWLGRTYHRSTWYDDYASSVRGRVSINVDTSKNQYSLQLNAVTPEDTGVYYCARDRLQDGNSWSDAFDVWGQGTMVTVSSGGGGSGGGGSGGGGSQSALTQPASVSGSPGQSITISCTGSSSDIGGFNYVSWYQQHAGEAPKLMIYEVTNRPSGVSDRFSGSKSDNTASLTISGLQAEDEADYYCSSYASGSPLYVFGTGTKVTVLG
notes: scFv domain of a CAR expressed on JNL cells; also called CD22-59
B6: CAR22-63 (scFv)
scFv: EVQLQQSGPGLVKPSQTLSLTCAISGDSVLSNSDTWNWIRQSPSRGLEWLGRTYHRSTWYDDYASSVRGRVSINVDTSKNQYSLQLNAVTPEDTGVYYCARDRLQDGNSWSDAFDVWGQGTMVTVSSGGGGSGGGGSGGGGSQSALTQPASVSGSPGQSITISCTGTSSDVGGYNYVSWYQQHPGKAPKLMIYEVSNRPSGVSNRFSGSKSGNTASLTISGLQAEDEADYYCSSYTSSSTLYIFGTGTKVTVLG
notes: scFv domain of a CAR expressed on JNL cells; also called CD22-63
B7: CAR22-60 (scFv)
scFv: EVQLQQSGPGLVKPSQTLSLTCAISGDSVLSNSDTWNWIRQSPSRGLEWLGRTYHRSTWYDDYASSVRGRVSINVDTSKNQYSLQLNAVTPEDTGVYYCARDRLQDGNSWSDAFDVWGQGTMVTVSSGGGGSGGGGSGSGGSQSALTQPASVSGSPGQSITFSCTGTSSDIGGYNYVSWYQQHPGKAPKLMIYEVSNRPSGVSNRFSGTKSGNTASLTISGLQAEDEADYYCSSYTSSSTLYVFGTGTKLTVLG
notes: scFv domain of a CAR expressed on JNL cells; also called CD22-60
B8: CAR22-61 (scFv)
scFv: QVQLQESGPGLVKPSQTLSLTCAISGDSVLSNSDTWNWIRQSPSRGLEWLGRTYHRSTWYDDYASSVRGRVSINVDTSKNQYSLQLNAVTPEDTGVYYCARDRLQDGNSWSDAFDVWGQGTMVTVSSGGGGSGGGGSGSGGSQSALTQPASVSGSPGQSITISCTGTSSDVGGYNYVSWYQQHPGKAPKLMIYEVSNRPSGVSNRFSGSKSGNTASLTISGLQAEDEADYYCSSYTSSSTLYVFGTGTKVTVLG
notes: scFv domain of a CAR expressed on JNL cells; also called CD22-61
B9: CAR22-53 (scFv)
scFv: EVQLQQSGPGLVKPSQTLSLTCAISGDSVSSNSAAWNWIRQSPSRGLEWLGRTYYRSKWYSDYAVSVKSRITINPDTSKNQFSLQLNSVTPEDTAVYYCARDPYDFWSGYPDAFDIWGQGTMVTVSSGGGGSGGGGSGGGGSQSALTQPASVSGSPGQSITISCTGTSSDVGGYNYVSWYQQHPGKAPKVIISEVNNRPSGVSHRFSGSKSGNTASLTISGLQAEDEADYFCSSYTSGRTLYVFGTGSKVTVLG
notes: scFv domain of a CAR on JNL cells or T cells; also called CD22-53; hCD22-53
B10: CAR22-64 (scFv)
scFv: EVQLQQSGPGLVKPSQTLPLTCAISGDSVLSNSDTWNWIRQSPSRGLEWLGRTYHRSTWYDDYASSVRGRVSINVDTSKNQYSLQLNAVTPEDTGVYYCARVRLQDGNSWSDAFDVWGQGTMVTVSSGGGGSGGGGSGGGGPQSALTQPASASGSPGQSVTISCTGTSSDVGGYNYVSWYQQHPGKAPKLMIYDVSNRPSGVSNRFSGSKSGNTASLTISGLQAEDEADYYCSSYTSSSTLYVFGTGTQLTVL
notes: also called CD22-64
B11: CAR22-65 (scFv)
scFv: EVQLQQSGPGLVKPSQTLSLTCAISGDSMLSNSDTWNWIRQSPSRGLEWLGRTYHRSTWYDDYASSVRGRVSINVDTSKNQYSLQLNAVTPEDTGVYYCARVRLQDGNSWSDAFDVWGQGTMVTVSSGGGGSGGGGSGGGGSQSALTQPASASGSPGQSVTISCTGTSSDVGGYNYVSWYQQHPGKAPKLMIYDVSNRPSGVSNRFSGSKSGNTASLTISGLQAEDEADYYCSSYTSSSTLYVFGTGTQLTVL
notes: also called CD22-65
B12: CAR123-3 (scFv, V domains shown)
VH: QVQLVQSGAEVKKPGASVKVSCKASGYIFTGYYIHWVRQAPGQGLEWMGWINPNSGGTNYAQKFQGRVTMTRDTSISTAYMELSGLRSDDPAVYYCARDMNILATVPFDIWGQGTLVTVSS
VL: DIQLTQSPSSLSASVGDRVTITCRASQSISSYLNWYQQKPGKAPKLLIYAASSLQSGVPSRFSGSGSGTDFTLTVNSLQPEDFATYYCQQGDSVPLTFGGGTKVEIK
B13: CAR123-4 (scFv, V domains shown)
VH: QVQLQQSGAEVKKSGASVKVSCKASGYTFTDYYMHWLRQAPGQGLEWMGWINPNSGDTNYAQKFQGRVTLTRDTSISTVYMELSRLRSDDTAVYYCARDMNILATVPFDIWGQGTMVTVSS
VL: DIQMTQSPSSLSASVGDRVTITCRASQSISSYLNWYQQKPGKAPKLLIYAASSLQSGVPSRFSGSGSGTDFTLTISSLQPEDFATYYCQQGDSVPLTFGGGTKVEIK

In the first experiment the target is T1, CD22-FL-Fc (UniProt P20273 20-687).
T1 construct: domain: full-length with all 7 external domains; also called CD22 full length-Fc; CD22 full-length with all 7 external domains; not shown: Fc part not described
The experiment can be described thus: NFAT-luciferase activation of CAR JNL cells on plates coated with CD22-FL-Fc, CD22-D567-Fc or CD22-D67. How it is done: (§1) Briefly the experiments were performed as follows. A lentiviral vector (pELPS) carrying a nucleic acid, encoding a CD22 CAR with a CD22-binding scFv domain was introduced by electroporation into a Jurkat T cell line modified to express luciferase under the control of an NFAT response element (JNL). The cells were cultured and allowed to express the CAR construct. The electroporated cells were applied to a plate coated with the target antigen (CD22). Detection of luciferase signal in the coated plate was indicative of binding activity of the CD22 CAR to its antigen, leading to activation of the T cells and expression of luciferase.
Three different target proteins (CD22-FL-Fc, CD22-D567-Fc, and CD22-D67) were used to coat the tissue culture plates; a negative control (Fc) was also included. A mesothelin binding CAR (Meso-G07) was used as a negative control. […] Domain mapping was performed on CD22 binding domains. Three different forms of antigens were used: CD22 full-length with all 7 external domains, Domain567 (in which domains 1-4 were deleted) and Domain67 (in which domains 1-5 were deleted).
In the case of B1, the binding result is on record as “binds”.
The same measure, in the same setting: the value for B2 was “binds”.
Same read-out and setting: the value for B3 was “binds”.
Still for that read-out and setting: in the case of B4 it was “binds”.
In the case of B5, the binding result is on record as “binds”.
Same read-out and setting: the value for B6 was “binds”; that for B7 was “binds”.
Regarding B8, the binding result is given as “binds”.
Still for that read-out and setting: in the case of B9 it was “binds”.

For another experiment, the target named is T1, CD22-FL-Fc. The experiment in a line: NFAT-luciferase activation of CAR JNL cells on plates coated with CD22 full length-Fc, CD22 D567-Fc or Fc only. The procedure: as §1
CAR constructs containing these scFvs were tested for activity in an NFAT assay as described above. […] The bars in the figure represent, from left to right, CD22 full length-Fc; CD22 D567-Fc; and an Fc only negative control used for coating of the plates.
As to B10, the binding result was “binds”.
For B11, the binding result is recorded as “binds”.

Another experiment deals with CD123 on target cells (MOLM14, MOLM13, primary B-ALL blasts) (human), P26951. The experiment in a line: cell-based or functional assay.
Sequence of CD123 on target cells (MOLM14, MOLM13, primary B-ALL blasts) (human), P26951 (P26951 19-378): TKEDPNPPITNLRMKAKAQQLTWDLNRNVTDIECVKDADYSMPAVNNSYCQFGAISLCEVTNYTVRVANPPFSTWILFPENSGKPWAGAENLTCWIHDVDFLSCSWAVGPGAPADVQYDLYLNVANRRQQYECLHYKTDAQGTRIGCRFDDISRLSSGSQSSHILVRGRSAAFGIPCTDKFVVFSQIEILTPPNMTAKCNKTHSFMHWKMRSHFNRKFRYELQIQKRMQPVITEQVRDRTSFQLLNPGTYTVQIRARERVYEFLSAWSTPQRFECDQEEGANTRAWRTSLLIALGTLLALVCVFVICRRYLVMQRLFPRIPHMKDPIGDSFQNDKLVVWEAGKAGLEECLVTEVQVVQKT
For B12, the CD107a degranulation, 2-hr in vitro assay was 80%.
Same read-out and setting: in the case of B13 it was 80%.
